# In US11141452 (dated 2021):
# Non-standard residues stand in square brackets, D forms with d. Primed or numbered codes have the meaning given here. No end group written: not given here. *: point of attachment. NH(3,5-(CF3)2-benzyl) = FC(F)(F)c1cc(CN*)cc(C(F)(F)F)c1; NMePhe(4-F) = CN[C@@H](Cc1ccc(F)cc1)C(=O)O; Phe(4-F) = N[C@@H](Cc1ccc(F)cc1)C(=O)O; Dmt = Cc1cc(O)cc(C)c1C[C@H](N)C(=O)O; NMeF = CN[C@@H](Cc1ccccc1)C(=O)O; 4‑Ampa = not defined here; 4‑Apac = not defined here; hSer = N[C@@H](CCO)C(=O)O; 4Abz = Nc1ccc(C(=O)O)cc1; 4Amb′ = not defined here; Orn = NCCC[C@H](N)C(=O)O; Dab = NCC[C@H](N)C(=O)O; Dap = NC[C@H](N)C(=O)O; NHBn = c1ccc(CN*)cc1; Ahx = NCCCCCC(=O)O; GABA = NCCCC(=O)O; βAla = NCCC(=O)O
# T1: human NK1 receptor (human, UniProt P25103)
# T1 chain: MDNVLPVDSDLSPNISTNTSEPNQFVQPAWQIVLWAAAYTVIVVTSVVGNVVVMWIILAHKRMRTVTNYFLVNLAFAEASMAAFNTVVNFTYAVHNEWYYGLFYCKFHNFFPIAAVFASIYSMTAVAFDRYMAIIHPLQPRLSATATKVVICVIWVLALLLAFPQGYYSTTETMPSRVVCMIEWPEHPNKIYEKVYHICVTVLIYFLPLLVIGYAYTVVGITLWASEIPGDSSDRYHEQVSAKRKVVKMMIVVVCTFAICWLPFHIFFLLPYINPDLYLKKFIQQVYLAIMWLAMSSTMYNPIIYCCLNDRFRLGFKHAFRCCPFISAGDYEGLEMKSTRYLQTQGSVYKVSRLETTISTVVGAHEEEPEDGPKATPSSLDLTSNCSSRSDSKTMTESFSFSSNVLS
# T2: delta opioid receptor (DOR) (UniProt P41143)
# T2 chain: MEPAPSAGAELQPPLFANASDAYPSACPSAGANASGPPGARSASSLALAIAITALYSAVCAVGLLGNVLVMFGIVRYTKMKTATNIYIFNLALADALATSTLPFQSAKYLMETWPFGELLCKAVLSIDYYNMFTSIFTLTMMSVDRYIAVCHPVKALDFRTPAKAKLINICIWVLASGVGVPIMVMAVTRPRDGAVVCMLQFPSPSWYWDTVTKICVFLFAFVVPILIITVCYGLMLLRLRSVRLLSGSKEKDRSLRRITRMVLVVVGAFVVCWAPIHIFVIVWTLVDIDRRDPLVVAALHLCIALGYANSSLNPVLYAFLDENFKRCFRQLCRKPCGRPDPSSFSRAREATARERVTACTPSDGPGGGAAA
# T3: rat NK1 receptor (rat, UniProt P14600)
# T3 chain: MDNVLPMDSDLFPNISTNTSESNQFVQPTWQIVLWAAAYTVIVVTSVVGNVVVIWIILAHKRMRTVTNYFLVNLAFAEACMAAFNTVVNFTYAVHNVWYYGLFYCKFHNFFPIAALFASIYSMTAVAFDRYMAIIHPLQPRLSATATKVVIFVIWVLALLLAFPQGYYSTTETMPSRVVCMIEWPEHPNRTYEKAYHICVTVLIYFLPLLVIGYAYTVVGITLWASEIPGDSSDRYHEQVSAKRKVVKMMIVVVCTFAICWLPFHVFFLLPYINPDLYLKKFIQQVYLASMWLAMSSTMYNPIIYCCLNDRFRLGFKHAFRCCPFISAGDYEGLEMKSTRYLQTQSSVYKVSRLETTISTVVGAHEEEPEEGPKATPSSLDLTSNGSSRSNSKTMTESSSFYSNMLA
# B1: AKG123 (peptide)
# chain: Y[dA]G[NMeF][GABA]PLW-{NH(3,5-(CF3)2-benzyl)}
# B2: AKG113 (peptide)
# chain: Y[dA]G[NMeF]GPLW-{NH(3,5-(CF3)2-benzyl)}
# B3: AKG119 (peptide)
# chain: Y[dA]G[NMeF][βAla]PLW-{NH(3,5-(CF3)2-benzyl)}
# B4: AKG176 (peptide)
# chain: Y[dA]G[NMeF][4Abz]PLW-{NH(3,5-(CF3)2-benzyl)}
# B5: AKG112 (peptide)
# chain: YAGFXPLW
# modifications: D-Ala2, NMePhe4, Nle5; C-terminal NH-Bn(3',5'-(CF3)2)
# B6: AKG124 (peptide)
# chain: Y[dA]G[NMeF][Ahx]PLW-{NH(3,5-(CF3)2-benzyl)}
# B7: AKG131 (peptide)
# chain: Y[dA]G[NMePhe(4-F)]GPLW-{NH(3,5-(CF3)2-benzyl)}
# B8: AKG177 (peptide)
# chain: Y[dA]G[NMeF][4‑Apac]PLW-{NH(3,5-(CF3)2-benzyl)}
# modifications: reading uncertain
# B9: AKG125 (peptide)
# chain: Y[dA]G[NMeF][4Amb′]PLW-{NH(3,5-(CF3)2-benzyl)}
# modifications: reading uncertain
# B10: AKG130 (peptide)
# chain: Y[dA]G[Phe(4-F)]GPLW-{NH(3,5-(CF3)2-benzyl)}
# B11: AKG106 (peptide)
# chain: Y[dA]G[NMeF]MPLW-NHBn
# B12: AKG178 (peptide)
# chain: Y[dA]G[NMeF][4‑Ampa]PLW-{NH(3,5-(CF3)2-benzyl)}
# modifications: reading uncertain
# B13: AKG107 (peptide)
# chain: XAGFMPLW
# modifications: not fully specified; Dmt1, D-Ala2, NMePhe4 as described; C-terminal benzylamide
# B14: AKG115 (peptide)
# chain: XAGFPLW
# modifications: Dmt1, D-Ala2, NMePhe4; C-terminal NH-Bn(3',5'-(CF3)2)
# B15: AKG191 (peptide)
# chain: XAGFPLW
# modifications: Dmt1, D-Ala2, Phe(4-Cl)4; C-terminal NH-Bn(3',5'-(CF3)2)
# B16: AKG190 (peptide)
# chain: Y[dA]G[Phe(4-F)]PLW-{NH(3,5-(CF3)2-benzyl)}
# B17: AKG183 (peptide)
# chain: XAGFPLW
# modifications: Dmt1, D-NMeAla2, NMeGly3; C-terminal NH-Bn(3',5'-(CF3)2)
# B18: AKG185 (peptide)
# chain: XAGFPLW
# modifications: Dmt1, D-NMeAla2, NMeGly3, NMePhe4; C-terminal NH-Bn(3',5'-(CF3)2)
# B19: AKG184 (peptide)
# chain: XAGFPLW
# modifications: Dmt1, D-NMeAla2, NMePhe4; C-terminal NH-Bn(3',5'-(CF3)2)
# B20: TY012 (peptide)
# chain: Y[dA]GFPLW-{NH(3,5-(CF3)2-benzyl)}
# B21: AKG181 (peptide)
# chain: XAGFPLW
# modifications: Dmt1, D-NMeAla2; C-terminal NH-Bn(3',5'-(CF3)2)
# B22: AKG182 (peptide)
# chain: XAGFPLW
# modifications: Dmt1, D-Ala2, NMeGly3, NMePhe4; C-terminal NH-Bn(3',5'-(CF3)2)
# B23: AKG128 (peptide)
# chain: XAGFPLW
# modifications: Dmt1, D-Ala2, NMePhe(4-F)4; C-terminal NH-Bn(3',5'-(CF3)2)
# B24: AKG180 (peptide)
# chain: XAGFPLW
# modifications: Dmt1, D-Ala2, NMeGly3; C-terminal NH-Bn(3',5'-(CF3)2)
# B25: AKG171 (peptide)
# chain: Y[dA]G[NMeF][Dap]PLW-NHBn
# B26: AKG039 (peptide)
# chain: Y[dA]GF[hSer]PLW-NHBn
# B27: AKG173 (peptide)
# chain: Y[dA]G[NMeF][Orn]PLW
# modifications: not fully specified (C-terminus)
# B28: AKG132 (peptide)
# chain: [Dmt][dA]G[NMeF]SPLW-NHBn
# B29: AKG126 (peptide)
# chain: Y[dA]G[NMeF]SPLW-NHBn
# B30: AKG172 (peptide)
# chain: Y[dA]G[NMeF][Dab]PLW-NHBn
# B31: AKG101 (peptide)
# chain: Y[dA]GF[dS]PLW-NHBn
# B32: AKG174 (peptide)
# chain: Y[dA]G[NMeF]KPLW
# modifications: not fully specified (C-terminus)
# B33: AKG038 (peptide)
# chain: Y[dA]GFSPLW
# modifications: not fully specified (C-terminus)
# B34: AKG192 (peptide)
# chain: XAGFPLW
# modifications: Dmt1, D-Ala2, Phe(4-Br)4; C-terminal NH-Bn(3',5'-(CF3)2)
# B35: AKG193 (peptide)
# chain: XAGFPLW
# modifications: Dmt1, D-Ala2, Phe(4-I)4; C-terminal NH-Bn(3',5'-(CF3)2)
# Molecular target: mu opioid receptor (MOR) (UniProt P35372)
# Sequence (P35372 whole entry): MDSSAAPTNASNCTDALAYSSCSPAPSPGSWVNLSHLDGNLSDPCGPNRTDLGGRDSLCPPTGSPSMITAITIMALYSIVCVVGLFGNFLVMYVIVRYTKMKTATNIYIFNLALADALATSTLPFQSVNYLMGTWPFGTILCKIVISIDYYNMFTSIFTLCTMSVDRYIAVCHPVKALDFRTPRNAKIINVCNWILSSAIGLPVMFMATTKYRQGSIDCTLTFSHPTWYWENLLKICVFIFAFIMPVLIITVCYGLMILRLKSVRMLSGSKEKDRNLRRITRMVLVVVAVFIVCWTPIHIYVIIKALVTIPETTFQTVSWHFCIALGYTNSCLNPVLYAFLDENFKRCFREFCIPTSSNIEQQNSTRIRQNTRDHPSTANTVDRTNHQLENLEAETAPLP
# Test: competition
row,Binder,Ki [nM]
1,B1,9
2,B2,3
3,B3,8
4,B4,1
5,B5,13
6,B6,7
7,B7,185
8,B8,1
9,B9,5
10,B10,9

# Molecular target: T1, human NK1 receptor
# Test: competition
row,Binder,Ki [nM]
1,B1,1.56
2,B2,15
3,B11,1.47
4,B12,3.5
5,B13,1.97
6,B3,0.93
7,B4,4.12
8,B5,14
9,B6,1.22
10,B7,2.14
11,B8,5.28
12,B9,2.27
13,B10,1.54

# Molecular target: T2, delta opioid receptor (DOR)
# Test: competition
row,Binder,Ki [nM]
1,B1,3
2,B2,46
3,B12,100
4,B3,46
5,B4,82
6,B5,22
7,B6,31
8,B7,17
9,B8,70
10,B9,117
11,B10,5

# Molecular target: T2, delta opioid receptor (DOR)
# Test: competition
# Remark: another data set of the same source
row,Binder,Ki [nM]
1,B14,5
2,B15,5
3,B16,0.2

# Molecular target: T3, rat NK1 receptor
# Test: competition
row,Binder,Ki [nM]
1,B17,17.6
2,B18,74.8
3,B19,115
4,B14,48.3
5,B15,26.5
6,B16,34.4
7,B20,33
8,B21,26.4
9,B22,110
10,B23,33.8
11,B24,17.1

# Molecular target: T3, rat NK1 receptor
# Test: competition
# Remark: another data set of the same source
row,Binder,Ki [nM]
1,B25,8.59
2,B26,148
3,B27,65.2
4,B28,31.1
5,B29,31.5
6,B30,8.24
7,B31,108
8,B32,7.31
9,B33,206

# Molecular target: T1, human NK1 receptor
# Test: competition
# Remark: another data set of the same source
row,Binder,Ki [nM]
1,B25,2.98
2,B26,1.32
3,B27,15.5
4,B28,5.61
5,B29,0.86
6,B30,3.05
7,B31,2.77
8,B32,3.18
9,B33,1.94

# Molecular target: T1, human NK1 receptor
# Test: competition
# Remark: another data set of the same source
row,Binder,Ki [nM]
1,B17,2.49
2,B34,2.54
3,B18,3.47
4,B19,2.84
5,B16,5.61
6,B20,0.6
7,B21,4.81
8,B22,5
9,B23,2.62
10,B24,2.86

# Molecular target: mu opioid receptor (MOR) (UniProt P35372)
# Test: competition
# Remark: another data set of the same source
row,Binder,Ki [nM]
1,B35,6
2,B34,5
3,B14,1
4,B15,2
5,B16,4
6,B20,9.5
7,B23,1

# Molecular target: mu opioid receptor (MOR) (UniProt P35372)
# Test: competition
# Remark: another data set of the same source
row,Binder,Ki [nM]
1,B25,3
2,B26,116
3,B27,5
4,B28,0.4
5,B29,2
6,B30,8
7,B31,196
8,B32,8
9,B33,127

# Molecular target: T2, delta opioid receptor (DOR)
# Test: competition
# Remark: another data set of the same source
row,Binder,Ki [nM]
1,B25,33
2,B26,6
3,B27,0.05
4,B28,2
5,B29,63
6,B30,100
7,B31,34
8,B33,7

# Molecular target: T3, rat NK1 receptor
# Test: competition
# Remark: another data set of the same source
row,Binder,Ki [nM]
1,B2,60.5
2,B11,9.9
3,B12,72.3
4,B13,13.6
5,B3,29.4
6,B4,77.8
7,B6,44.3
8,B7,89.1
9,B8,74.3
10,B9,29.9
11,B10,72.5
